For one substance, MFI results are on record in patent US20210009703A1.

For this assay, the target named is cynomolgus CD25 expressed on cells (Cynomolgus monkey) (UniProt H6WS54). Briefly: flow cytometry on cyno-CD25-CHO-S cells, 100 nM antibody, anti-human R-PE. (In general: In flow cytometry, cells or beads pass a laser one at a time.)

In turn, IgG1 Isotype (antibody) gave an MFI of 82.
